From US20140343124A1 (ROYAL INSTITUTION FOR THE ADVANCEMENT OF LEARNING MCGILL …, published 2014)
Blank lines part the entries; values can stand above or below the molecule they belong to.

Tests used:
[1] = target: actin (actin stress fibers / actin cytoskeleton of glioma cells); experiment: cell-based or functional assay
MYC-LC2 = target: T1, MYC-LC2 (UniProt P78559 2567-2803, limits assumed); experiment: co-immunoprecipitation of heterologously expressed proteins
T1 construct: domain: light chain (LC2) subunit; also called LC2 (heterologously expressed, MYC-tagged); not shown: MYC tag
T1 sequence (looked up): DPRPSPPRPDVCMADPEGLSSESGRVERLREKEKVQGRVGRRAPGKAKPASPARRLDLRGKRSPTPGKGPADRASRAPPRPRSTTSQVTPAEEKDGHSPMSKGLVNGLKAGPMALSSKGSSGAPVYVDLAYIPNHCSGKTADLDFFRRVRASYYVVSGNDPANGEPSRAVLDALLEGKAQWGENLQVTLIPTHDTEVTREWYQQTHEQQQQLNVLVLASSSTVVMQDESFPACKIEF

- fold decrease in invasiveness in a 3D invasion assay [1]: 3 fold
Molecule: DRR^ΔPEPE (from UniProt O95990 1-144)

- binding result (MYC-LC2): no binding
B1: DRR^ΔHRE (other, UniProt O95990 1-144, looked up)
chain: MYSEIQRERADIGGLMARPEYREWNPELIKPKKLLNPVKASRSHQELAAALLMNHRRGLGVDSKPELQRVLEHRRRNQLIKKKKEELEAKRLQCPFEQELLRRQQRLNQLEKPPEKEEDHAPEFIKVRENLRRIATLTSEEREL
notes: also called non-LC2 form of DRR
